B1: EHEE_rd2_1257 (parent)
chain: EEERTFTNEEEARKAKKEAEKRGLRVTVTKDGTTWRVRIG

Variants of: B1
Assay: folding stability dG (cDNA display proteolysis); higher = more stable
Conditions: PBS, room temperature

Row | Variant | folding stability dG
1 | R22G | 1.02 kcal/mol
2 | R22F | 1.62 kcal/mol
3 | R22S | 1.44 kcal/mol
4 | R22E | 1.23 kcal/mol
5 | R22I | 1.59 kcal/mol
6 | V26T | 0.897 kcal/mol
7 | V26Y | 0.032 kcal/mol
8 | V26L | 0.171 kcal/mol
9 | V26S | 0.809 kcal/mol
10 | K21N | 2.06 kcal/mol
11 | K21T | 1.88 kcal/mol
12 | T33P | 2.58 kcal/mol
13 | T33Y | 2.15 kcal/mol
14 | T33H | 2.11 kcal/mol
15 | T33I | 1.89 kcal/mol
16 | K30W | 3.02 kcal/mol
17 | K30N | 1.9 kcal/mol
18 | K30Q | 2.13 kcal/mol
19 | K30M | 1.75 kcal/mol
20 | K30R | 2.04 kcal/mol
21 | A19Q | 0.398 kcal/mol
22 | A19I | 1.53 kcal/mol
23 | A19E | 0.159 kcal/mol
24 | A19T | 0.176 kcal/mol

Row | Variant | folding stability dG
25 | A19G | 1.06 kcal/mol
26 | R36H | 1.81 kcal/mol
27 | R36E | 0.524 kcal/mol
28 | R36M | 1.65 kcal/mol
29 | R36Y | 2.47 kcal/mol
30 | R36S | 1.17 kcal/mol
31 | R36G | -0.199 kcal/mol
32 | W35K | -0.11 kcal/mol
33 | W35Q | -0.107 kcal/mol
34 | W35N | -0.29 kcal/mol
35 | W35F | 1.32 kcal/mol
36 | W35H | 0.478 kcal/mol
37 | W35Y | 1.35 kcal/mol
38 | W35G | -0.505 kcal/mol
39 | T7S | 1.91 kcal/mol
40 | T7M | 1.89 kcal/mol
41 | T7Y | 2.06 kcal/mol
42 | E9M | 1.55 kcal/mol
43 | T5M | 1.94 kcal/mol
44 | T5Y | 2.17 kcal/mol
45 | T5Q | 1.6 kcal/mol
46 | T5K | 1.17 kcal/mol
47 | T5R | 1.52 kcal/mol
48 | T5I | 2.56 kcal/mol

Row | Variant | folding stability dG
49 | T5D | 1.13 kcal/mol
50 | T5P | 0.253 kcal/mol
51 | T5E | 1.65 kcal/mol
52 | A15V | 1.72 kcal/mol
53 | A15E | 1.11 kcal/mol
54 | A15G | -0.185 kcal/mol
55 | A15N | 0.555 kcal/mol
56 | A15M | 1.87 kcal/mol
57 | A15T | 1.19 kcal/mol
58 | V28C | 1.96 kcal/mol
59 | V28Y | 0.822 kcal/mol
60 | T27M | 1.53 kcal/mol
61 | T27H | 1.57 kcal/mol
62 | T27G | 0.262 kcal/mol
63 | T27W | 1.96 kcal/mol
64 | T27R | 1.62 kcal/mol
65 | T27L | 1.58 kcal/mol
66 | T27S | 1.77 kcal/mol
67 | G40Q | 2.38 kcal/mol
68 | G40K | 2.07 kcal/mol
69 | G40P | 0.916 kcal/mol
70 | E3A | 1.34 kcal/mol
71 | E3H | 1.42 kcal/mol
72 | N8M | 1.18 kcal/mol

Row | Variant | folding stability dG
73 | N8A | 1.07 kcal/mol
74 | N8V | 1.43 kcal/mol
75 | N8L | 1.52 kcal/mol
76 | N8E | 1.35 kcal/mol
77 | N8R | 1.49 kcal/mol
78 | R38F | 2.23 kcal/mol
79 | R38D | 1 kcal/mol
80 | R38I | 2.59 kcal/mol
81 | R38M | 2.04 kcal/mol
82 | R38W | 2.11 kcal/mol
83 | E1H | 2.05 kcal/mol
84 | E1R | 1.83 kcal/mol
85 | E1S | 2.02 kcal/mol
86 | E1A | 2.21 kcal/mol
87 | E1K | 1.7 kcal/mol
88 | K14H | 2.01 kcal/mol
89 | K14I | 2 kcal/mol
90 | K14E | 2.19 kcal/mol
91 | K14A | 2.31 kcal/mol
92 | R25E | 1.5 kcal/mol
93 | R25N | 1.62 kcal/mol
94 | E2R | 1.97 kcal/mol
95 | E2Y | 2.85 kcal/mol
96 | E2K | 1.73 kcal/mol

Row | Variant | folding stability dG
97 | E2M | 2.16 kcal/mol
98 | E2S | 2.06 kcal/mol
99 | E2G | 1.66 kcal/mol
100 | E2N | 1.81 kcal/mol
101 | E2V | 2.3 kcal/mol
102 | T29W | 2.6 kcal/mol
103 | T29Y | 2.33 kcal/mol
104 | T29K | 1.34 kcal/mol
105 | T29A | 1.29 kcal/mol
106 | E18M | 1.72 kcal/mol
107 | E18Y | 1.59 kcal/mol
108 | E18H | 1.43 kcal/mol
109 | E18G | 0.934 kcal/mol
110 | V37E | 0.078 kcal/mol
111 | V37Y | -0.22 kcal/mol
112 | K17Y | 2.44 kcal/mol
113 | K17H | 2.24 kcal/mol
114 | K17N | 2.15 kcal/mol
115 | K17S | 2.19 kcal/mol
116 | K16L | 1.95 kcal/mol
117 | K16Q | 2.91 kcal/mol
118 | K16S | 1.99 kcal/mol
119 | K16F | 2.35 kcal/mol
120 | E10M | 2.02 kcal/mol

Row | Variant | folding stability dG
121 | E10W | 2.57 kcal/mol
122 | E10F | 2.01 kcal/mol
123 | E10T | 1.81 kcal/mol
124 | E10I | 1.98 kcal/mol
125 | E20Q | 1.67 kcal/mol
126 | E20M | 1.66 kcal/mol
127 | E20V | 1.39 kcal/mol
128 | E20C | 1.45 kcal/mol
129 | T34Q | 1.97 kcal/mol
130 | T34A | 1.68 kcal/mol
131 | T34E | 1.81 kcal/mol
132 | T34L | 2.76 kcal/mol
133 | T34H | 2.12 kcal/mol
134 | T34D | 1.53 kcal/mol
135 | T34I | 2.63 kcal/mol
136 | G32R | 0.337 kcal/mol
137 | G32N | 0.966 kcal/mol
138 | G32F | 0.011 kcal/mol
139 | G32Q | 0.902 kcal/mol
140 | L24S | 0.594 kcal/mol
141 | L24W | 1.61 kcal/mol
142 | L24Q | 1.41 kcal/mol
143 | D31Q | 1.7 kcal/mol
144 | D31Y | 1.75 kcal/mol

Row | Variant | folding stability dG
145 | D31R | 1.32 kcal/mol
146 | D31A | 1.41 kcal/mol
147 | D31G | 0.303 kcal/mol
148 | D31W | 1.51 kcal/mol
149 | D31L | 1.74 kcal/mol
150 | D31T | 1.76 kcal/mol
151 | I39F | 1.75 kcal/mol
152 | I39A | 0.675 kcal/mol
153 | I39S | 0.837 kcal/mol
154 | G23V | 0.034 kcal/mol
155 | G23C | 1.58 kcal/mol
156 | R4N | 1.14 kcal/mol
157 | R4H | 2.17 kcal/mol
158 | R4E | 1.37 kcal/mol
159 | R4L | 2.8 kcal/mol
160 | F6W | 0.194 kcal/mol
161 | R13I | 2.74 kcal/mol
162 | R13A | 1.93 kcal/mol
163 | E11R | 0.608 kcal/mol
164 | E11D | 2.28 kcal/mol
165 | E11F | 0.906 kcal/mol
166 | E11M | 1.55 kcal/mol
167 | E11I | 0.287 kcal/mol

— the MegaScale stability set (Tsuboyama et al. 2023)
